The nature of this data set: label from the status in PepcDB records.
Turning to “MANIAVQRIKREFKEVLKSEETTKNQIKVDLVDENFTELRGEIAGPPDTPYEGGRYQLEIKIPETYPFNPPKVRFITKIWHPNISSVTGAICLDILKDQWAAAMTLRTVLLSLQALLAAAEPDDPQDAVVANQYKQNPEMFKQTARLWAHVYAGAPVSSPEYTKKIENLCAMGFDRNAVIVALSSKSWDVETATELLLSN”, the protein production result is on record as “not failed”.
Take “MTWQPFYVGTGQAPAGAEEQVVLPPAPPWREFPRRSQHRQFVPPPRLAEAVNAALALRRPLLVTGPAGSGKSTVIEQVAAELALGDVLRWHITSRSSLAEALYRYDALGRIHAQRLEGPGGSDDIAPFLRMGPLGTALLPSARPRALLIDEIDKSDLDLPSDLLDVLERGEFEIPELARYGTDVVPVREHGGERTHLIARGRVQCAEFPFIVMTSNGDRDFPAAFLRRCIRFTMPLPTPETLLRVVEAHMGPEKAAADETGRLITVFLERLTAGESLAVDQLLNAVHLLTGDGAPGDDRRQAIAELILRELSHALEHHHHHH”: the protein production result was “failed”.
As to “FKGKNLLVIQVESLENFVINKSVNGQEITPNLNKLLKNSLYFSNYNEEVNQGTTSDAELMTNTSIYPVSTGSTFFRYPDNKYYNSLPKILERQGYYTQAMHGDKGSYWNWKPALKSIGFQNIVDSTGFKDDENIGLGLSDGSFLRQAEPMVEASKGPWYNYVITMSGHAPFDLPTKYRELKINSELDSSYLGGYLQSVHYEDKQIGIFLDNLRKSGALDNTMVVIYGDHCGIHKYYQSDVETTKGAESWMIDNHKEVPLIVYNSSLKGKEITTTGGQIDLMPTILYLMGIDKNEYLNTAMGRNLLNTNESYAVWSNGEFIG”, the protein production entry is reported as “failed”.
Take “MAENLRDSVVHRDIALLSFCAPVMLERLPSSFVKHIELWLSAAGLGIIFGVGYASGPSGPAFWRLIAVIAVGIGVVHGFIFWAVRRRQRQVRRQSIREIQQMLSDVLKNKLAAINMYLPEDADEEMVKQELDGVRASIEDIADEIENISEESIEGWKEHYSGAVERTTNL”: the protein production entry is given as “failed”.
Regarding “MKVTSAEKHALLLPDNRTLTWYESGPSDGQPVLFCTGAGMSGLLSMDADLLTKLNIRLITPTRPGLGESTFDPKKTLKSFSSDVLFLLAYLNIKNISVIGSSQGAVFAMAICYYGKVDKLAIVAGQDQLDYPEIKKLLSSDVVNMQQQALFDPDGLKTWIIENITADWLMDFILNYSADVDLALYQENKFFPVYQACMKEAFKYGNKGYAQDLLITMQPWGFTPEMISTPTTLWYGLKDTSTVHSPDFGKLLSQRFPHAQRYVYDNEGGSLLWTKTSQILTNLIS”, the protein production result was “failed”.
Regarding “MGHHHHHHSHVAKVSQREEMVKKCLGELTEVCKSLGKVFGVHYFNIFNTVTLKKLAESLSSDPEVLLQIDGVTEDKL”, the protein production entry is reported as “failed”.
Take “MTEIATIEKPAQHGATTRLIDIVFPGDTNHHGTLFGGTGLALMDRVAFIAATRFGRTPFVTASCERIDFRQPARIGHIVEFTARPVKAGRRSLTVEVEMVAETIIGRQQHTCTRGIFHMVAIPEGEDAASYVLPELLTEETPDPSDAVTMVEIVFPDQANSAGRMFGGEAIAYMTKAAFVAASRYCGKLVVLASSERIDFARAIEIGEIVEAQAHVERVGRSSMSIQTKLWSENLLTGERHITATGHFTMVAVDKDHRPATIRDPAEAFSLEKGGA”: the protein production entry is listed as “not failed”.
Regarding “MGIKQYSQEELKEMALVEIAHELFEEHKKPVPFQELLNEIASLLGVKKEELGDRIAQFYTDLNIDGRFLALSDQTWGLRSWYPYDQLDEETQPTVKAKKKKAKKAVEEDLDLDEFEEIDEDDLDLDEVEEELDLEADDFDEEDLDEDDDDLEIEEDIIDEDDEDYDDEEEEI”, the protein production result is recorded as “failed”.
Turning to “MVHASQLNSYSLAILKLCLFILDFVLLCFFLMLTDEEIDSDSELDEYMEQQIAALPQNEINPEEDDESDSDEMGLDEDDDSSDEEDVEAEAPLKVAPPSKKMPNGAFEIAKGGKKNKSSGGKKRCPFPCGPSCKK”, the protein production result is “failed”.
On to “MKYLYQQLLAFIGVIALIILIVGTSFTQLTKRTMQENNYEQLYGYAESALETRDFFINVAGVSDRDVLSYSFQLTERVLQKQDVQFVFINKDREVQYPPVDSTKKLDFSLIDKNWDQIMKGNRVYATENIDIYGARNTSSYVMLPVYASNQSSDKKVIIGSLVITQPAKNVDRSVQSVTQNLIKGFIFSGVIALLLSYLFATFQVKRINRMRKATKEITSGNFDIQLPVHDKDEFDDLAEDFNKMAASLKESQEEINRQEERRRQFMADASHEMRTPLTTINGLLEGLQYNAIPENQKENAIKLMQNETARLIRLVNENLDYEKIRTNQIQIVVKKFNGTEALENIVTQLTAKAEAAGNQLYLDTTEPIDVYADYDRFVQVVVNIVQNAIQFTENGEIHIALEKGYLETIVRISDTGIGMTEEQILNIWDRYYKVDPSRKNTKYGESGLGLPIVQQLVRLHKGKINVESELGKGTTFIISFPDVEITEN”, for which the protein production entry was “not failed”.
Next, “MGKQESEKTVTGSDGSGRYERKALIDKLYETQELSREEWIRLIEGRTPELSEYLFEKARAVREREYGKAVYIRGLIECSNYCRNNCYYCGIRRGNQNAQRYRLTADEILSCCENGYSLGFRTFVLQGGEDPAMTDGWVADVIRRIKKEFPDCAVTLSLGEKSEAAYQCLFDAGADRYLLRHETADADHYGKLHPDGLSLAHRMECLRTLKRIGFQTGCGFMVGSPGQTPECLAKDMAFIRELNPQMVGIGPFIPQHDTPFRDERAGAFEETLWLLGLIRLMLPRVLLPATTALGTIHPKGRELGMLAGANVVMPNLSPLGVRKKYLLYDNKICTGDEAAESLNSLKESMKAIGYEVAVGRGDYRL”: “failed”.
Then “MYPEKEYEELIKKIKTKVKEELNKNSKANVSGLNLDTAKRLADAAVKKAGEMGVNVAVAVMDIHGNMILFNRMDDSVLAAIEVAPKKAYTSAALRIPSSEVLKGGFDKLVETMEGKIAAFGGGLPVRSNGIFLGALGVSGGTSEEDIKIAEYAVNAVFG”, with “failed”; and “ADDFAMEMGLACVVCRQMTVASGNQLVECQECHNLYHQDCHKPQVTDKEVNXPSRGVVLCPGTRQMKRMAQKNQK”, with “not failed”.
Then “MTKSQQKVSSIEKLSNQEGIISALAFDQRGALKRMMAEHQSETPTVEQIEQLKVLVSEELTQYASSILLDPEYGLPASDARNNDCGLLLAYEKTGYDVNAKGRLPDCLVEWSAKRLKEQGANAVKFLLYYDVDDTEEINIQKKAYIERIGSECVAEDIPFFLEVLTYDDNIPDNKSAEFAKVKPRKVNEAMKLFSEDCFNVDVLKVEVPVNMNFVEGFSEGEVVYTKEEAAQHFRDQDAATHLPYIYLSAGVSAELFQDTLKFAHDSGAQFNGVLCGRATWSGAVKVYIEEGEQAAREWLRTVGFKNIDDLNTVLKTTATSWKNK”, with “not failed”; and “AQKKTQKTYIPWSNGKLVVSEEGRYLKHENGTPFFWLGETGWLLPERLNRDEAEYYLEQCKRRGYNVIQVQTLNNVPSMNIYGQYSMTDGYNFKNINQKGVYGYWDHMDYIIRTAAKKGLYIGMVCIWGSPVSHGEMNVDQAKAYGKFLAERYKDEPNIIWFIGGDIRGDVKTAEWEALATSIKAIDKNHLMTFHPRGRTTSATWFNNAPWLDFNMFQSGHRRYGQRFGDGDYPIEENTEEDNWRFVERSMAMKPMKPVIDGEPIYEEIPHGLHDENELLWKDYDVRRYAYWSVFAGSFGHTYGHNSIMQFIKPGVGGAYGAKKPWYDALNDPGYNQMKYLKNLMLTFPFFERVPDQSVIAGQNGERYDRAIATRGNDYLMVYNYTGRPMEVDFSKISGAKKNAWWYTTKDGKLEYIGEFDNGVHKFQHDSGYSSGNDHVLIVVDSSKDYVKKDCYQIDTHE”, with “not failed”.
Turning to “MTYQKIIDKINQQISQHVYLGASLALYDGQWQEFYLGETIPHHKTKAGLVYDLASVSKVVGVGTVIIFLLQANHLKLDEPLQAYYPNFHDSSVTIRQLLTHTSGIDPFIPNRNKLDFAALKQAINHIEVTKTKSFHYTDLNFILLGFLLEEFYDQSLDRIIKEHVLKPFGMEKTSFGPVKRAVPTGKTIPIGRVHDPKAQVLGIHTGSAGLFSNLEDLKCFVNHYLSDAFAKPLTQDFAYADKTRSLAWDLTGDWLFHTGYTGTFILLNIKKQSAAIFLSNRTYEKDERSQWILDRNDLIEVIKAALKKVSDSNCD”, the protein production entry is on record as “failed”.
Next, “KQFPGYPEFVLVEIETQRGCPKAMGIGGCSFCTEPVRYKVVENRPQEYVAQEVETFYNMGIRHFRIGRQSCIFSYKARPNGRVPIPKPEEVEKLFKAVRLAAPNVKTLHVDNANPAVIANYPEESRRIAKAIIEYGTPGNVVAFGLETADPKVARINNLNATPEETYEAVKIINEVGGRRGYNGLPWLLPGINIIFGLPGETKRTYELTYEFLKKILDDGLMVRRINIRQVVVFPGTPLWNMRDKVKTEKHKALIEHYRHKIRHEIDLPMLKRVVPVG”: “failed”.
Regarding “MGHHHHHHSHSSEVNATEEMSTLVNYIEPVKFKSFEAARKRNKCFEMSSFVETKAMEQLTKSPMEFVEYNKQQLSRIYPKGTRVDSSNYMPQLFWNVGCQLVALNFQTLDVAMQLNAGVFEYNGRSGYLLKPEFMRRPDKSFDPFTEVIVDGIVANALRVKVISGQ”, the protein production result is listed as “failed”.
In the case of “MEWLNEPPNWSHSDQKIIVTTSPKTDFWRITHYGFIRDSGHFYFDRVSTDFVVDVKIKGNYKDLYDQAGIMIRADEQHWIKTGIEYVDGVQNLSAVVTHNYSDWSFTPLLNPPNIFQVRVERCQEAIHIAYLDEYSRYVPFRMAYFPVALDIQVGIMCASPQGNGYEVIFEDYQLTKKGEKLSLEHHHHHH”, the protein production entry was “failed”.
Next, “LEMKGKRMSVTAVMRELEKEENLYRRSGGGITLSGGEPLAQPEFARELLKACKAKGWHTAIETSGFTTKAVIDEVFPYVDLALTDIKAIDPEIHERNTGVNNRVILENLLRISFLTKVVVRIPVIPGVNDNSQEIHNIAEFARLMQNVDTIHLLPYHSFGENKYNLLGRQYPMGDTKSIEESQMAELKAMVESLGFNCHIGG”: “failed”; “MSDAHKSDLYLVLVTLLAAIGWMLSKEAVLMMPPLMFMAARFLIAGAFLALLALPSLLRLSRDQILRSLGVGFVFGIAMTCWIMGLYHTDSMGEGAFLTSLGVVIVPIIARTVFGEQQPLSTWLAIPIAVAGLALLSLENGFRPDPGQLYFVLAATIFALYFTLNTRAANQRIVVDKQGKTVEKKKVPALPLTAIALLTVGTVTLAESAISERWTHILTNPEPMLYVWVLASALIATAARFLLQTYAQSLSVNSHGVVILVLEPVWVAVFAVAWFGETMTLLQIAGCALIFAALLVNRWNALSRAIKALMKAKNPRQRG”: “failed”.
Then “MMITRGGAKAAKSLLVAAGPRLFSTVRTVSSHEALSASHILKPGVTSAWIWTRAPTIGGMRFASTITLGEKTPMKEEDANQKKTENESTGGDAAGGNNKGDKGIASYWGVEPNKITKEDGSEWKWNCFRPWETYKADITIDLKKHHVPTTFLDRIAYWTVKSLRWPTDLFFQRRYGCRAMMLETVAAVPGMVGGMLLHCKSLRRFEQSGGWIKALLEEAENERMHLMTFMEVAKPKWYERALVITVQGVFFNAYFLGYLISPKFAHRMVGYLEEEAIHSYTEFLKELDKGNIENVPAPAIAIDYWRLPADATLRDVVMVVRADEAHHRDVNHFASDIHYQGRELKEAPAPIGYH”, with “failed”.

For the origin of these results see a protein production outcome set (Wang et al. 2014).
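Note: failed if final PepcDB status was selected cloned or expressed and not failed if soluble or beyond.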
